Test results: US20250313634A1 (WUXI BIOLOGICS SHANGHAI, published 2025)

T1: PD-L2 expressed on transfected CHO cells (Homo sapiens (Human), UniProt Q9BQ51 20-273)
T1 construct: also called PD-L2 of PD-1 ligand family
T1 sequence: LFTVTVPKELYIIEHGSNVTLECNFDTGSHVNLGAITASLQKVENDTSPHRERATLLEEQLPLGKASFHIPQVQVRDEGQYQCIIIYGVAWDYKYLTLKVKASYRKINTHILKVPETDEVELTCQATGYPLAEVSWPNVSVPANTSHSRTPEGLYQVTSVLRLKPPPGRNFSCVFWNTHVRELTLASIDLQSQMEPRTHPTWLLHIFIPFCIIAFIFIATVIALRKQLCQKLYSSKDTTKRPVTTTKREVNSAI


Legend:
[1] = target: T1, PD-L2 expressed on transfected CHO cells; assay: FACS on PD-L2 transfected CHO-K1 cells, single bar, antibody concentration not shown
Method: 3.8 Cross-family binding assay by FACS: to examine the cross-family binding activity of the fully human antibodies, cells lines that express PD-L2 were stained with the fully human antibodies, followed by 2nd antibody staining with FITC conjugated goat anti-human IgG Fc. PD-L1 expressing cells were used as positive control. Corresponding parental cell lines were used as negative controls. The stained cells were analyzed by using a BD Biosciences FACSCanto II and FlowJo Version software.
CHO cells transfected with PD-L1 or PD-L2 were stained with fully human PD-L1 antibodies and analysis by FACS.

murine PD-L1 = target: T2, murine PD-L1 (mouse, UniProt Q9EP73 19-238, limits assumed); assay: ELISA, murine PD-L1 coated on the plate, goat anti-human IgG Fc-HRP; antibody concentration not shown
T2 construct: also called mouse PD-L1 (coated on ELISA plates)
T2 sequence (Q9EP73 19-238 limits assumed): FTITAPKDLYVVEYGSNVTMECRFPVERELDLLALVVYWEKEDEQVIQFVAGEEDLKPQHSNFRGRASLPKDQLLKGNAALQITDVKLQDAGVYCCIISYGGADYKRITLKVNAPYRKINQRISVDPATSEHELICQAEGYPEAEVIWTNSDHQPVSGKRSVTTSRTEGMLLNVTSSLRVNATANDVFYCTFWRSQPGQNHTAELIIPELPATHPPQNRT
Method: 3.7 Cross-species binding assay: the cross-reactivity of the Ab to cynomolgus and murine PD-L1 was measured by ELISA. Human, cyno and mouse PD-L1 were coated on ELISA plates, respectively. After blocking, fully human antibodies were added into the plate and incubated at room temperature for at least 2 hours. The binding of the antibodies to the coated antigens was detected by using goat anti-human IgG Fc-HRP. The color reaction was developed using TMB substrate and stopped by 2M HCl. The ELISA plates were analyzed at 450 nm using a Molecular Device M5e microplate reader.

[2] = target: T3, full-length human PD-L1 expressed on CHO cells (human, UniProt Q9NZQ7 19-290); assay: FACS competition on CHO cells expressing human PD-L1; competitor mouse Fc-tagged human PD-1
T3 construct: whole, on cells; also called CHO-K1 cells expressing human PD-L1; PD-L1 transfected CHO cells
T3 sequence (Q9NZQ7 19-290): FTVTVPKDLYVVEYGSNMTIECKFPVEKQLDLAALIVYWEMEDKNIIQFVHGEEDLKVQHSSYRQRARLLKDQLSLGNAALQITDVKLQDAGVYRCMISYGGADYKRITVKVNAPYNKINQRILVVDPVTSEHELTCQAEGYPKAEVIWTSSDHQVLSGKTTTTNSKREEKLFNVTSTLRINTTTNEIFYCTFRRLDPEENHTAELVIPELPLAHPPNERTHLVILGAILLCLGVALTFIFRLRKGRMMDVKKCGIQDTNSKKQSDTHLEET
Method: (§1) 3.1 Competition assay by FACS: to examine whether the fully human antibodies can block the binding of PD-L1 to PD-1, the CHO-K1 cells expressing human PD-L1 were incubated with various concentrations of the fully human antibodies at 4° C. for 1 hour. The unbound antibodies were washed away, and then the mouse Fc-tagged human PD-1 was added to the cells. The binding of human PD-1 to PD-L1 expressing cell was detected by using FITC-conjugated goat anti-mouse IgG, followed by the analysis using a BD Biosciences FACSCanto II and FlowJo Version software.
(§2) Then the mouse Fc-tagged human PD-1 was added to the cells. The binding of human PD-1 to PD-L1 expressing cell was detected by using FITC-conjugated goat anti-mouse IgG, followed by the FACS analysis.

recombinant human PD-L1 = target: T4, recombinant human PD-L1 (human, UniProt Q9NZQ7 19-238, limits assumed); assay: surface plasmon resonance per legend paragraph 39 and paragraph 188; column Best fit-KD, mol/L from the legend
T4 construct: Used for the SPR analyte (3.2) and for the plate-coated human PD-L1 of the cross-species ELISA (3.7); also called human PD-L1 (SPR analyte); Human PD-L1 coated on ELISA plates
T4 sequence (Q9NZQ7 19-238 limits assumed): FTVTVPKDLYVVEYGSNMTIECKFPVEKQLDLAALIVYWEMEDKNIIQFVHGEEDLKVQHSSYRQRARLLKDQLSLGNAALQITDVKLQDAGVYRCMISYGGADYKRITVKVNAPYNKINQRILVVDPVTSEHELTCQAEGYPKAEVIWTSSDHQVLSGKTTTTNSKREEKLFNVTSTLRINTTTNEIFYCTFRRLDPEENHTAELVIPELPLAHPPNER
Excerpt: 3.2 Affinity test by surface plasmon resonance (SPR): Antibodies were characterized for affinity and binding kinetics to PD-L1 by SPR assay using ProteOn XPR36 (Bio-Rad). Protein A protein (Sigma) was immobilized to a GLM sensor chip (Bio-Rad) through amine coupling. Purified antibodies were flowed over the sensor chip and captured by the Protein A. The chip was rotated […] and washed with running buffer (1×PBS/0.01% Tween20, Bio-Rad) until the baseline is stable. Five concentrations of human PD-L1 and running buffer were flowed against the antibody flow cell at a flow rate 100 μL/min for an association phase of 240s, followed by 600s dissociation. The chip was regenerated with pH 1.7 H₃PO₄ after each run. The association and dissociation curve was fit to a 1:1 Langmiur binding model using ProteOn software.

[3] = target: T3, full-length human PD-L1 expressed on …; assay: FACS on CHO cells transfected with full-length human PD-L1
[4] = target: T3, full-length human PD-L1 expressed on …; assay: FACS competition: blocking of mouse Fc-tagged human PD-1 binding to CHO cells expressing human PD-L1
Method: as §1, §2

Row | Binder | binding result [1] | binding result (murine PD-L1) | IC50 [2] [nM] | Kd (recombinant human PD-L1) [nM] | EC50 (read off the curve) [3] [nM] | IC50 (read off the curve) [4] [nM]
1 | 1.46.11 (antibody, V domains shown, Fully human monoclonal antibody with a human constant region of IgG4 isotype) VH: EVQLLESGGGLVQPGGSLRLSCAASGFTFSSYAMSWVRQAPGKGLEWVSGFSGSGFITYYADSVKGRFTISRDNSKNTLYLQMNSLRAEDTAVYYCAMPPRGYNYGPFDYWGQGTLVTVSS VL: SYVLTQPPSVSVAPGQTARITCGGNNIGSKSVHWYQQKPGQAPVLVVYDDSDRPSGIPERFSGSNSGNTATLTISRVEAGDEADYYCQVWDSSSDHVVFGGGTKLTVL | no binding | no binding |  |  |  | 
2 | 1.20.15 (antibody, V domains shown, Fully human monoclonal antibody with a human constant region of IgG4 isotype; also called fully human PD-L1 antibody 1.20.15; 1.20.15-VH(30712)) VH: QLQLQESGPGLVKPSETLSLTCTVSGGSISSISNYWGWIRQPPGKGLEWIGSIYYSGSTNYNPPLKSRVTISVDTTKNQFSLKLSSVTAADTAVYYCARLTYYFDYWGQGMLVTVSS VL: SYDLTQPPSVSVSPGQTASITCSGDKLGDKYACWYQQKPGQSPLLVIQQDSKRPSGIPARFSGSNSGNTATLTISGTQAMDEADYFCQTWDSSTVVFGGGTKLTVL | no binding | no binding | ~10 | 0.226 | ~1 | ~2
3 | 1.4.1 (antibody, V domains shown, Fully human monoclonal antibody with a human constant region of IgG4 isotype; also called fully human PD-L1 antibody 1.4.1; 1.4.1-VH(30511)) VH: QLQLQESGPGLVKPSESLSLTCTVSGGSISIRTYYWGWIRQPPGTGLEWMGYIYYSGSTRYNPSLKSRVTISVDTSKNQFSLKLSSVTAADTAVYYCARLSYFFDYWGQGTLVTVSS VL: SYELTQPPSVSVSPGQTASITCSGDKLGDKYACWYQQKPGQSPVMVIYQDTKRPSGIPERFSGSNSGNTATLTISGTLAMDEADYYCQAWDSGTVIFGGGTKLTVL | no binding |  |  | 0.478 |  | 
